From publication PMC8229081, “A Novel Assay for Phosphoserine Phosphatase Exploiting Serine Acetyltransferase as the Coupling Enzyme” (Life, 2021) come the findings set out here.

Data set [1] has as its target T1, human PSP (phosphoserine phosphatase) (Homo sapiens, UniProt P78330).
T1 construct: gene PSPH
T1 sequence (P78330 1-225): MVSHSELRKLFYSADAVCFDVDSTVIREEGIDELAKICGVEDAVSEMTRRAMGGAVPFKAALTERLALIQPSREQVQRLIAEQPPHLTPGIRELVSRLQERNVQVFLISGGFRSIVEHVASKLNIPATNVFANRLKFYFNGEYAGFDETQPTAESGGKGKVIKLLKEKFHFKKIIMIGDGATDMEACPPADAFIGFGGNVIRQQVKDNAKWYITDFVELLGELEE
Particulars: 40 µM L-OPS, 15.7 nM PSP, 3 mM MgCl2, pH 7, 37 °C; product inhibition.

Substrate in the data set “purified protein”: N[C@@H](COP(=O)(O)O)C(=O)O
Description: purified protein. Particulars: 50 mM HEPES, 100 mM KCl, 3 mM MgCl2, pH 7, 37 °C, 170 µM acetyl-CoA, 0.5 mM DTNB, 430 mU HiSAT removing product L-serine. Type of data set: biochemical, Homo sapiens.

One may read the % inhibition as the drop in the measured response relative to a control, in per cent. With `O=P(O)(O)O` [phosphate], the “% inhibition at 50 mM” value in data set [1] turned out to be 50%.

B1: human PSP (phosphoserine phosphatase) (Homo sapiens) (protein)
chain: MVSHSELRKLFYSADAVCFDVDSTVIREEGIDELAKICGVEDAVSEMTRRAMGGAVPFKAALTERLALIQPSREQVQRLIAEQPPHLTPGIRELVSRLQERNVQVFLISGGFRSIVEHVASKLNIPATNVFANRLKFYFNGEYAGFDETQPTAESGGKGKVIKLLKEKFHFKKIIMIGDGATDMEACPPADAFIGFGGNVIRQQVKDNAKWYITDFVELLGELEE
notes: dimer
As usually defined, the Km is the concentration of substrate that gives half-maximal velocity. What is called kcat is the number of substrate molecules converted per active site and unit of time at saturation. The kcat/Km is the second-order rate constant that governs catalysis at low substrate concentration. Consider B1, for which, in “purified protein”, the Km came out at 40.3 ± 2.8 µM, the kcat amounted to 44.8 ± 0.9 s⁻¹ and the kcat/Km turned out to be 1.11e+06 ± 100000 M⁻¹ s⁻¹.
